Assay results published in patent US20110091477A1 (Genentech, published 2011).

Tests used:
HGFA (Val373-Ser655) [1] = target: T1, HGFA (Val373-Ser655) (human, UniProt Q04756 373-655); experiment: SPR (BIAcore 3000), IgG captured on anti-human IgG, HGFA injected, 25 C
T1 construct: a tag is not described; also called human HGFA
T1 sequence: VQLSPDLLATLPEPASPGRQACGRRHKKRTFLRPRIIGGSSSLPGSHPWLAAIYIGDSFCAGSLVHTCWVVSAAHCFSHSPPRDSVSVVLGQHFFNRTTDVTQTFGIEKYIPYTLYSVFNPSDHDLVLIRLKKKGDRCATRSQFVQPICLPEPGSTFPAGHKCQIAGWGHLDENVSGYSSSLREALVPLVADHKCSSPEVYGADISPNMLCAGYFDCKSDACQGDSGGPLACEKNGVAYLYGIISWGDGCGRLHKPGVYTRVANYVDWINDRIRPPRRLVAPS
Source text: (§1) Antibody reformatting and determination of dissociation rate constants to HGFA: Anti-HGFA Fabs were reformatted into human IgG1 by cloning the VL and VH regions of individual clones into LPG3 and LPG4 vector, respectively (Liang et al, 2007). The full-length antibodies were transiently expressed in Chinese Hamster Ovary cells and purified on a protein-A column. To determine binding affinities of the reformatted anti-HGFA antibodies, surface plasmon resonance measurements on a BIAcore™-3000 instrument (GE Health Care, NJ) were performed. Rabbit anti-human IgG were chemically immobilized (amine coupling) on CM5 biosensor chips and the anti-HGFA antibodies were captured to give approximately 250 response units (RU). For kinetics measurements, two-fold serial dilutions of HGFA or active site-blocked HGFA (0.9 nM to 250 nM) were injected in PBT buffer at 25° C. with a flow rate of 30 μl/min. HGFA-KQLR (“KQLR” disclosed as SEQ ID NO: 10) was produced by incubating HGFA with two fold molar excess of Ac-KQLR-cmk (“KQLR” disclosed as SEQ ID NO: 10) for 2 hours at room temperature, followed by size exclusion chromatography to remove non-incorporated Ac-KQLR-cmk (“KQLR” disclosed as SEQ ID NO: 10). Association rates (kₒₙ) and dissociation rates (koff) were obtained by using a simple one-to-one Langmuir binding model (BIAEvaluation) and the equilibrium dissociation constants (KD) were calculated (koff/kₒₙ). Longer injection (5 min) of 2-fold serial dilution of HGFA or HGFA-KQLR (“KQLR” disclosed as SEQ ID NO: 10) (1.5 nM to 3000 nM) over captured antibody (Ab40.ΔTrp) sensor chip was implemented to achieve maximal binding (Rₘₐₓ) and reach the steady state.

factor XIIa = target: T2, factor XIIa (UniProt P00748 20-615, limits assumed); experiment: direct binding ELISA on coated factor XIIa, anti-human antibody HRP conjugate, OD 450 nm
T2 construct: also called FXIIa; coagulation factor XIIa
T2 sequence (looked up): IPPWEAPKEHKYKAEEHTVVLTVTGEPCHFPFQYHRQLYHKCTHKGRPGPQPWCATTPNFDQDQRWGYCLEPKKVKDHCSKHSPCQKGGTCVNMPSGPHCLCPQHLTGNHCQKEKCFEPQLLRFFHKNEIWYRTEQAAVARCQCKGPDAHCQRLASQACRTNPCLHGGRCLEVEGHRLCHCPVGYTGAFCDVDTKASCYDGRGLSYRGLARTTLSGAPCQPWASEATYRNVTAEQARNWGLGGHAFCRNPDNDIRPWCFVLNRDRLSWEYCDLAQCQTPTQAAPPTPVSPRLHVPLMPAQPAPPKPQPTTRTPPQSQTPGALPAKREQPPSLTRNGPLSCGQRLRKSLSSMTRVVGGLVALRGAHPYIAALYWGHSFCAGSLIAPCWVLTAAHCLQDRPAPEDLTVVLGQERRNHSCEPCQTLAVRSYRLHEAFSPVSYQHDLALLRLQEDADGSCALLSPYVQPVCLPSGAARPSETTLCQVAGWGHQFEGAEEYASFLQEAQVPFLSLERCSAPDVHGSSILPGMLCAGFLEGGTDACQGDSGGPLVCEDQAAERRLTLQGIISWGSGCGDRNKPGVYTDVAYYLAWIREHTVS
Description: (§2) FIG. 9: (a) Antibody specificity. In a direct binding ELISA, 96-well plates were coated with […] of HGFA, matriptase (Kirchhofer et al. (2003) J Biol Chem 278:36341-36349), urokinase (American Diagnostica), or factor XIIa (American Diagnostica) and incubated with […] of anti-HGFA antibodies in PBS, 0.05% (v/v) Tween-20 (PBT) buffer. After washing, bound antibodies were detected by addition of anti-human antibody HRP conjugate (diluted 1:2,500 in PBT buffer) and TMB substrate. Absorbance at 450 nm was measured on a microplate reader.
(§3) Competition HGFA binding ELISA experiments: For binding specificity measurements, 96-well Maxisorp plates were coated with 2 μg/ml of HGFA, matriptase, urokinase-type plasminogen activator or factor XIIa and incubated with 10 μg/ml of anti-HGFA IgG in PBST buffer for at least 1 hour at room temperature. The plates were washed with PBT buffer and bound antibodies were detected with anti-human antibody HRP conjugate diluted 1:2500 in PBST buffer, developed with TMB substrate for approximately 5 minutes, quenched with 1 M H₃PO₄, and absorbance was measured on a microplate reader at 450 nm.

matriptase = target: T3, matriptase (UniProt Q9Y5Y6 615-855, limits assumed); experiment: direct binding ELISA on coated matriptase, anti-human antibody HRP conjugate, OD 450 nm
T3 sequence (looked up): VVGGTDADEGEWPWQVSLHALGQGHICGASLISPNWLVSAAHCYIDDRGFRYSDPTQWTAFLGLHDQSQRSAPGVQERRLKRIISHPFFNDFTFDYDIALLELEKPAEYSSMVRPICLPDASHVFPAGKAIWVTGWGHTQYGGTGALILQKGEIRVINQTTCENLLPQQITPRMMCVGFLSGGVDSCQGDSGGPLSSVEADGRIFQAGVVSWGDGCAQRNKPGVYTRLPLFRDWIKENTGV
Description: as §2, §3

[2] = target: urokinase-type plasminogen activator (UniProt P00749 21-431, limits assumed); experiment: direct binding ELISA on coated urokinase, anti-human antibody HRP conjugate, OD 450 nm
Description: as §2, §3

HGFA (Val373-Ser655) [3] = target: T1, HGFA (Val373-Ser655); experiment: SPR (BIAcore 3000), steady state affinity, IgG captured, HGFA injected
Source text: (§4) Antibody reformatting and determination of dissociation rate constants to HGFA: Anti-HGFA Fabs were reformatted into human IgG1 by cloning the VL and VH regions of individual clones into LPG3 and LPG4 vector, respectively (Liang et al, 2007). The full-length antibodies were transiently expressed in Chinese Hamster Ovary cells and purified on a protein-A column. To determine binding affinities of the reformatted anti-HGFA antibodies, surface plasmon resonance measurements on a BIAcore™-3000 instrument (GE Health Care, NJ) were performed. Rabbit anti-human IgG were chemically immobilized (amine coupling) on CM5 biosensor chips and the anti-HGFA antibodies were captured to give approximately 250 response units (RU). For kinetics measurements, two-fold serial dilutions of HGFA or active site-blocked HGFA (0.9 nM to 250 nM) were injected in PBT buffer at 25° C. with a flow rate of 30 μl/min. […] Association rates (kₒₙ) and dissociation rates (koff) were obtained by using a simple one-to-one Langmuir binding model (BIAEvaluation) and the equilibrium dissociation constants (KD) were calculated (koff/kₒₙ). […]

HGFA-KQLR complex [4] = target: T4, HGFA-KQLR complex (human, UniProt Q04756 373-655, N-terminal acetyl; C-terminal chloromethyl ketone, reacted with Ser195 and His57 of HGFA; active-site Ser195 and His57 (chymotrypsinogen numbering) covalently linked to Ac-KQLR-cmk); experiment: SPR (BIAcore 3000), steady state affinity, IgG captured, HGFA-KQLR complex injected
Source text: as §4

HGFA-KQLR complex [5] = target: T4, HGFA-KQLR complex; experiment: SPR (BIAcore 3000), IgG captured on anti-human IgG, HGFA-KQLR complex injected, 25 C
Source text: as §1

HGFA (Val373-Ser655) [6] = target: T1, HGFA (Val373-Ser655); experiment: SPR
Source text: as §4

HGFA-KQLR complex [7] = target: T4, HGFA-KQLR complex; experiment: SPR
Source text: as §4

HGFA (Val373-Ser655) [8] = target: T1, HGFA (Val373-Ser655); experiment: competition ELISA: coated HGFA incubated with increasing Ab40, then 1 nM biotinylated KD1, detected with streptavidin-HRP; blocked ligand KD1; inhibition partial
Source text: FIG. 3: Effects of active site inhibitors on antibody binding to HGFA. (a-b, e-f) Surface plasmon resonance (BIAcore) measurements of binding to immobilized antibodies, Ab40 (a-b) or Ab40.ΔTrp (e-f), after co-injection of HGFA (a,e) or HGFA-KQLR (b, f) complex (“KQLR” disclosed as SEQ ID NO: 10). (c) Competition binding (BIAcore) of HGFA to immobilized Ab40 in presence of different concentrations of KD1. (d) Competition binding ELISA measuring binding of HGFA to biotinylated KD1 in the presence of increasing antibody concentrations.
HGFA purification, enzymatic kinetic assays and competition ELISA: HGFA (Val373-Ser655) was produced by use of a baculovirus—insect cell expression system and purified on a Ni-NTA-agarose column, followed by size exclusion chromatography as described (Kirchhofer et al, 2003). […] After addition of S-2266 (0.24 mM˜Kₘ) the linear rates of the increase in absorbance at 405 nm were measured on a kinetic microplate reader (Spectramax-M5, Molecular devices, Sunnyvale, Calif.). […] Various concentrations of Chromogenix S-2266 were added and the linear rates of absorbance increase at 405 nm were measured. […] Biotinylated KD1 that was bound to HGFA was detected by streptavidin-HRP conjugates.

B1: Ab39 (antibody, V domains shown)
VH: EVQLVESGGGLVQPGGSLRLSCAASGFTFNGTYIHWVRQAPGKGLEWVGGIYPAGGATYYADSVKGRFTISRDNSKNTLYLQMNSLRAEDTAVYYCAKWWAWPAFDYWGQGTLVTVSS
VL: DIQMTQSPSSLSASVGDRVTITCRASQDVSTAVAWYQQKPGKAPKLLIYSASFLYSGVPSRFSGSGSGTDFTLTISSLQPEDFATYYCQQSYTTPPTFGQGTKVEIKR
notes: also called parental Ab39; anti-HGFA antibody Ab39
Kd (HGFA (Val373-Ser655) [1]): 10.3 nM | koff (HGFA (Val373-Ser655) [1]): 0.0053 s⁻¹ | kon (HGFA (Val373-Ser655) [1]): 520000 M⁻¹ s⁻¹ | binding result (factor XIIa): no binding | binding result (matriptase): no binding | binding result [2]: no binding

B2: Ab40.ΔTrp (antibody, V domains shown)
VH: EVQLVESGGGLVQPGGSLRLSCAASGFTFNGTYIHWVRQAPGKGLEWVGGIYPAGGATYYADSVKGRFTISRDNSKNTLYLQMNSLRAEDTAVYYCAKWAWPAFDYWGQGTLVTVSS
VL: DIQMTQSPSSLSASVGDRVTITCRASQDVSTAVAWYQQKPGKAPKLLIYSASFLYSGVPSRFSGSGSGTDFTLTISSLQPEDFATYYCQQSNRAPATFGQGTKVEIKR
notes: also called Trp96H-deletion mutant of Ab40
Kd (HGFA (Val373-Ser655) [3]): 150 nM | Kd (HGFA-KQLR complex [4]): 161 nM

B3: Ab40 (antibody, V domains shown)
VH: EVQLVESGGGLVQPGGSLRLSCAASGFTFNGTYIHWVRQAPGKGLEWVGGIYPAGGATYYADSVKGRFTISRDNSKNTLYLQMNSLRAEDTAVYYCAKWWAWPAFDYWGQGTLVTVSS
VL: DIQMTQSPSSLSASVGDRVTITCRASQDVSTAVAWYQQKPGKAPKLLIYSASFLYSGVPSRFSGSGSGTDFTLTISSLQPEDFATYYCQQSNRAPATFGQGTKVEIKR
notes: also called anti-HGFA antibody Ab40
Kd (HGFA (Val373-Ser655) [1]): 0.16 nM | koff (HGFA (Val373-Ser655) [1]): 0.000175 s⁻¹ | kon (HGFA (Val373-Ser655) [1]): 1.08e+06 M⁻¹ s⁻¹ | binding result (factor XIIa): no binding | binding result (matriptase): no binding | Kd (HGFA-KQLR complex [5]): 1.35 nM | koff (HGFA-KQLR complex [5]): 0.00043 s⁻¹ | kon (HGFA-KQLR complex [5]): 320000 M⁻¹ s⁻¹ | fold improvement in binding affinity over Ab39 (HGFA (Val373-Ser655) [6]): 64 fold | fold decrease in affinity compared to HGFA (HGFA-KQLR complex [7]): 8 fold | binding result [2]: no binding | IC50 (read off the curve) (HGFA (Val373-Ser655) [8]): ~1 nM
